Biological target: HLA-DR (human)
Test: flow cytometry on Raji cells, APC mouse anti-human IgG (FIG. 21B)

- fold higher ED50 than chLym-1: 2 fold
B1: huLym-1-B antibody (antibody, human IgG1, V domains shown)
VH: EVQLVESGGGLVQPGRSLRLTCTASGFSLTSYGVHWVRQPPGKGLEWLAVIWSDGSTTYNSALKSRLTISKDNSKSQVYLQMNSLRAEDTAVYYCARHYGSTLAFASWGQGTLVTVSS
VL: DIQMTQSPSSLSASVGDRVTITCRASVNIYSYLAWYQQKPGKAPNLLIYNAKILAEGVPSRFSGSGSGTDFTLTISSLQPEDFASYYCQHHYGTFTFGQGTKVEIK
